Publication doi:10.1101/2025.04.18.649563
pKd: −log10 of the molar value. Values joined by “and” are separate entries in the source; they are usually repeats but may differ in a detail not shown here. Identical values can stand only once.

Target: actin purified from muscle acetone powder (ground beef); polymerised to F-actin (Bos taurus (ground beef)) (UniProt P68138)
Assay: co-sedimentation

“Lfat1 ABD [change], recombinant (from UniProt Q5ZVQ3 138-355) (domain or fragment)” was tested, and the pKd was 4.72 and 4.79 and 4.20.
